Experimental data reported in patent publication US20120251554A1 (TECHNISCHE UNIVERSIT T DRESDEN, published 2012).

B1: anti-CD33DRB1 (antibody, V domains shown)
VH: EVKLQESGAELVRPGVSVKISCKGSGYTFTDYVLHWVKQSHAKSLEWIGLINTYNGDVRYNQKFMGKATMTIEKSSSTAYMELVRLTSEDSAIYYCARDYRYEYYAMDYWGQGTSVTVSS
VL: DIVLTQSPAIMSASPGEKVTMTCSANSSVSYIHWYQQKSGTSPKRWIFDTSKLASGVPARFSGSGSGTSYSLTISTMEAEDAATYYCQQWTSHPLTFGTGTKLQLKR
notes: Murine monoclonal antibody from a hybridoma (tested as hybridoma supernatant); also called monoclonal anti-CD33DRB1; anti-CD33DRB antibody
B2: anti-CD33DRB2 (antibody, V domains shown)
VH: EVKLQESGPELVKPGASVKMSCKASGYKFTDYVVHWLKQKPGQGLEWIGYINPYNDGTKYNEKFKGKATLTSDKSSSTAYMEVSSLTSEDSAVYYCARDYRYEVYGMDYWGQGTSVTVSS
VL: DIVLTQSPTIMSASPGERVTMTCTASSSVNYIHWYQQKSGDSPKRWIFDTSKVASGVPARFSGSGSGTSYSLTISTMEAEDAATYYCQQWRSYPLTFGDGTRLELKR
notes: Murine monoclonal antibody from a hybridoma; also called monoclonal anti-CD33DRB2; anti-CD33DRB antibody
B3: CD33-L18-GFP-L18-CD3 (bispecific antibody, part only; not given: anti-CD3 scFv, GFP, linkers, not shown: small tags and cut ends; large carriers)
chain, part: EVKLQESGPELVKPGASVKMSCKASGYKFTDYVVHWLKQKPGQGLEWIGYINPYNDGTKYNEKFKGKATLTSDKSSSTAYMEVSSLTSEDSAVYYCARDYRYEVYGMDYWGQGTSVTVSSDIVLTQSPTIMSASPGERVTMTCTASSSVNYIHWYQQKSGDSPKRWIFDTSKVASGVPARFSGSGSGTSYSLTISTMEAEDAATYYCQQWRSYPLTFGDGTRLELKRADAAPTVS

Columns and labels:
[1] = molecular target: T1, human CD33 (human, UniProt P20138 18-364); assay: method not stated (sentence refers to FIG. 3, flow cytometry)
T1 construct: whole, on cells; also called CD33+-Hek293T cells; Hek293T-CD33
T1 sequence (P20138 18-364): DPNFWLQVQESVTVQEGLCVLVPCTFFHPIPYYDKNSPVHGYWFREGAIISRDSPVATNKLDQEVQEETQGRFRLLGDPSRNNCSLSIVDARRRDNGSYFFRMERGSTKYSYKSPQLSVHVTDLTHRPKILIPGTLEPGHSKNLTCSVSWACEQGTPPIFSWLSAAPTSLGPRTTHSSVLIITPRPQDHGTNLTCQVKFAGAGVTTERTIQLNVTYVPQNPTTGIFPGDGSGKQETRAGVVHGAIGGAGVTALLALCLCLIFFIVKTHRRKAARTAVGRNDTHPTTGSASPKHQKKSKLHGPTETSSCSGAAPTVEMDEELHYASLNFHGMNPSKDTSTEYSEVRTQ

[2] = molecular target: T1, human CD33; assay: cell-based or functional assay

Binder | Kd [1] [nM] | specific lysis of the CD33+-Hek293T cells (51Cr release assay, 20-hour in vitro culture) [2] [%]
B1 | ~0.1 | –
B2 | ~0.1 | –
B3 | – | < 86
